We go through nine molecules from patent US20140112930A1 (published 2014).

Sequences and labels used below:
T1: Monomeric hAng-2FD (human, UniProt O15123 282-496)
T1 construct: also called fibrinogen-like domain of human Ang2; Human Ang-2FD
T1 sequence: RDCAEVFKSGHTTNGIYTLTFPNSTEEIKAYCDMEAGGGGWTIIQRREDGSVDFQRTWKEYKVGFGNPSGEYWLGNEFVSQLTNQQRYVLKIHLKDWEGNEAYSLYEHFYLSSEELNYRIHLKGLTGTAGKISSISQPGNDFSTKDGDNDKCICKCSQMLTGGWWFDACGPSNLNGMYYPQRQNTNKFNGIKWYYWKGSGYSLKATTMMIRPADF

T2: wild-type human Ang-2 (hAng-2-WT) (human, UniProt O15123 19-496)
T2 construct: called full-length wild-type; also called Full-length wild-type human Ang-2
T2 sequence: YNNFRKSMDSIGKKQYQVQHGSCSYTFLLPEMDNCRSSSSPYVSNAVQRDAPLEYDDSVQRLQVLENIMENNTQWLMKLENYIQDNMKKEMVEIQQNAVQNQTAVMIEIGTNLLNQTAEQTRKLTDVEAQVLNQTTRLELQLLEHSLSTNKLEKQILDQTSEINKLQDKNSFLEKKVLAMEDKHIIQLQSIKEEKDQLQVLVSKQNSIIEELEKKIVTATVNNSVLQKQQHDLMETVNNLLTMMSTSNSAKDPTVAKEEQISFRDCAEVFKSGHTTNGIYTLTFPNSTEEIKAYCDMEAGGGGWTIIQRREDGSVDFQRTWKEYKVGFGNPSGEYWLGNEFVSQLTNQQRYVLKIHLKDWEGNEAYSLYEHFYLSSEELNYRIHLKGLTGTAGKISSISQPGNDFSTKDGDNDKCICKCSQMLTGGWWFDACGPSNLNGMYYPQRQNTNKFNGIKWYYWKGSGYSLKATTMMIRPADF

B1: H1H706P (antibody, V domains shown)
VH: QVQLVESGGGVVQPGRSLRLSCAASGFTFSSYGMHWVRQAPDKGLEWVAVKWDDGSNKYYADSVKGRFTISRDNSKNTLYLQMNSLRAEDTAVYYCAREGPYDFYSGYGAFDIWGQGTMVTVSS
VL: DIQMTQSPSSLSASVGDRVTITCRASQGISNYLAWFQQKPGKAPKSLIYAASSLQSGVPSKFSGSGSGTDFTLTISSLQPEDFATYYCQQYNSYPRTFGQGTKVEIK
B2: H1H728N (antibody, V domains shown)
VH: EVQLVESGGDLVQPGGSLRLSCTASGFTFSKYWMTWVRQAPGRGLEWVANIKEDGNEKYFLDSVKGRFTISRDNAKDLLFLQMNSLRGEDTAVYYCVRDRGIEVAGPFDYWGQGTLVTVSS
VL: DIQMTQSPSTLSASVGDRVTVTCRASQTIINWLAWYQQKPGKAPKLLISKASSLESGVPSRFSGSGSGTEFTLTISSLQPDDFATYYCQQYNRYWTFGQGTMVEIK
B3: H1H730N (antibody, V domains shown)
VH: EVQLVESGGGLVQPGGSLRLSCAASGFAFRSYWMTWVRQAPGKGLEWVANIQQDGNDKYYVDSVKGRFTISRDNAKNSLYLQMNSLRAEDTAVYYCARDTGIAEAGPFDYWGQGTLVTVSS
VL: B2 VL with T20S, V21I, N31S, K45R, S49Y, S76N, M102K
B4: H1H724N (antibody, V domains shown)
VH: QVQLVESGGGVVQPGRSLRLSCAASGFTLSNYGMHWVRQAPGKGLEWVAVIWHDGSNTYYADSVKGRFTISRDNSKNTLYLQMNSLRAEDTAVYYCTREGLDFWSGYYPNWFDPWGQGTLVTVSS
VL: DIQMTQSPSSLSASVGDRVTITCRASQGIRNDLGWYQQKPGKAPKRLIYAASNLQGGVPSRFSGSGSGTEFTLTISSLQPEDFAAYYCLQHNIYPLTFGGGTKVEIK
B5: H1H732N (antibody, V domains shown)
VH: EVQLVESGGGLVRPGGSLRLSCAASGFTFTNAWMSWVRQAPGKGLEWIGQIKSKTDGGTIDYAAPVKGRFTVSRDDSENTLFLQMNSLKTEDTAVYYCAGNWNYVDFDYWGQGTLVTVSS
VL: B4 VL with G28D, N53S, A85T, I93S, L96F, G100P, E105D
B6: H1H704P (antibody, V domains shown)
VH: QVQLVESGGDVVQPGRSLRLSCAASGFTFSSYGMHWVRQAPGKGLEWVAIIWYDGSNKYYADSVKGRFTISRDNSKNTLYLQMNSLRVEDTAVYSCARDFSISSRHFDYWGQGTLVTVSS
VL: DIQMTQSPSSLSASVGDRVTITCRASQAINNYLAWFQQKPGKAPKSLIYATSNLQSGVPSQFSGSGSGTDYTLTISSLQPEDFATYYCQQYYIYPITFGQGTRLEIK
B7: H1H742N (antibody, V domains shown)
VH: DVQLLESGGDLVQPGGSLRLSCEASGFTFRNYVMIWVRQAPGKGLEWVSGISNSGGTTHYTDSVKGRFTISRDNSKNTLYLQINSLRAEDTAVYYCAKGYLDTSLIEGNWFDPWGQGTLVTVSS
VL: NIVMTQSPLSLPVTPGEPASISCRSSQSLLHSNGFNYLNWFLQKPGQSPQLLIYLGSNRASGVPDKFSGSGSGTDFTLNINRVEAEDVGIYFCMQTLQTPLTFGGGTKVEIK
B8: H1H707P (antibody, V domains shown)
VH: B1 VH
VL: not shown
B9: H1H691P (antibody, V domains shown)
VH: EVQLVESGGGLVQPGRSLRLSCAASGFTFDDYAMHWVRQAPGKGLEWVSGISWNSGDIGYADSVKGRFTISRDNAKNSLYLQMNSLRAQDTALYYCAKAYGDYYYFYGMDVWGQGTTVTVS
VL: EIVLTQSPGTLSLSPGERATLSCRASQSVSSSYLAWYQQKPGQAPRLLIFSASSRATGIPDRFSGSGSGTDFTLTISRLEPEDFAVYYCQQYDNSLTFGGGTKVEIK

The Kd is the concentration at which binding is half-saturated.

Numbering of substitutions follows the chain as printed.

T5 sequence (chain, as listed by the source limits assumed): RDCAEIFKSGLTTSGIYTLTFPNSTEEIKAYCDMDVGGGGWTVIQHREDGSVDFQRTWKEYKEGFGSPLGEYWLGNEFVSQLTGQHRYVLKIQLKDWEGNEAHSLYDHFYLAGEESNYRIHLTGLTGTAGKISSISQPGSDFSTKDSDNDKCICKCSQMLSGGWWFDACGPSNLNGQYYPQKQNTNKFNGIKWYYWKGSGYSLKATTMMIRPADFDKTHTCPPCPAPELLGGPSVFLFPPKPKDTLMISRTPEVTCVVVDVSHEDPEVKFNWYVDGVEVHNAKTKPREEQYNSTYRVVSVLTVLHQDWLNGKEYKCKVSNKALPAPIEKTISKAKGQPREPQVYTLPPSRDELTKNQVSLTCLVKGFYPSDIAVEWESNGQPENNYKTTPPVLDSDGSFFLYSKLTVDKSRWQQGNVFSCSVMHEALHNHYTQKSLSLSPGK
T3 sequence (chain, as listed by the source limits assumed): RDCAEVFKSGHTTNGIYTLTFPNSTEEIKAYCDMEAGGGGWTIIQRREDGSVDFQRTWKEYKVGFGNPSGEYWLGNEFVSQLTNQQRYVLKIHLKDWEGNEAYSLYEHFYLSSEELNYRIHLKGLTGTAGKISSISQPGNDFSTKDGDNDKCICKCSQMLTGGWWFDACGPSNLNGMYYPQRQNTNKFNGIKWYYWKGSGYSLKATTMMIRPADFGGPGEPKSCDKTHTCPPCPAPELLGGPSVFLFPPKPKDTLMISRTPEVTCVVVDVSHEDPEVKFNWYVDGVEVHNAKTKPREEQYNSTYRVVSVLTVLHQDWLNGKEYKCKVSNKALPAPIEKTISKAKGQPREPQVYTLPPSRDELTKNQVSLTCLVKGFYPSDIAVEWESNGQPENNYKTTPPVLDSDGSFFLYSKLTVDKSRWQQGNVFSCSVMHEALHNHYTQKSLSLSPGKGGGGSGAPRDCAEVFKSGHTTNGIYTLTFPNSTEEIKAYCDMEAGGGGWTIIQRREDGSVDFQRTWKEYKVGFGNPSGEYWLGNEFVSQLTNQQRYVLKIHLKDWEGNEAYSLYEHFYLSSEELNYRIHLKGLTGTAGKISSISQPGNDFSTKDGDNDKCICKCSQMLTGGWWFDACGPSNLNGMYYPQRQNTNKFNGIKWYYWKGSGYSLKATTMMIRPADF

The first experiment has as its target T3, human bow-Ang-2 tetrameric construct (hBA2) (human).
T3 construct: also called human BA2; hBA2-hIgG1
The experiment is described as follows: SPR, captured Ab.
As for B1, the affinity, expressed as Kd, was 0.0791 nM and the T1/2 was determined as 63.9 min.
In turn, B2 gave a Kd of 0.0418 nM and a T1/2 of 185 min.
For the molecule B3, the equilibrium dissociation constant (Kd) was determined as 0.0559 nM and the T1/2 stood at 152 min.
B4: the dissociation constant (Kd) came out at 0.0233 nM and the T1/2 was determined as 323 min.
B5 registered a dissociation constant (Kd) of 0.132 nM and a T1/2 of 73 min.
As to B6, the dissociation constant Kd came out at 0.0939 nM and the T1/2 turned out to be 118 min.
B7 had an equilibrium dissociation constant (Kd) of 0.0721 nM and a T1/2 of 87 min.

The target of another experiment is T1, Monomeric hAng-2FD. The experiment is described as follows: SPR, captured Ab. A general note: In SPR one partner is held on a chip, and binding of the other changes the refractive index at the surface.
Regarding B1, the T1/2 worked out at 1.02 min.
With B2, the equilibrium dissociation constant (Kd) worked out at 1.18 nM and the T1/2 is 5.86 min.
Turning to B3, binding was put at a Kd of 2.84 nM and the T1/2 is 3.44 min.
B4 came in with a Kd of 2.4 nM and a T1/2 of 13.3 min.
Molecule B5 had an equilibrium dissociation constant (Kd) of 264 nM and a T1/2 of 0.22 min.
The like results for B6 were, in that order, 0.39 nM and 3.31 min.
B7 yielded a Kd of 486 nM and a T1/2 of 2.29 min.

In a further experiment the target is T2, wild-type human Ang-2 (hAng-2-WT). The experiment is described as follows: SPR, captured Ab.
Consider B1, for which the Kd was 0.0274 nM and the T1/2 amounted to 662 min.
In turn, B2 gave a Kd of 0.043 nM and a T1/2 of 566 min.
Molecule B3 gave a dissociation constant Kd of 0.0475 nM and a T1/2 of 534 min.
The corresponding values for B4 are 0.0226 nM and 895 min.
B5 gave a dissociation constant Kd of 0.202 nM and a T1/2 of 264 min.
B6 had a dissociation constant (Kd) of 0.0362 nM and a T1/2 of 748 min.
The molecule B7 showed a dissociation constant (Kd) of 0.0449 nM and a T1/2 of 666 min.

The target of the next experiment is T4, Dimeric Monkey Ang-2FD conjugated to human IgG1 (monkey (Macca fascicularis); human).
T4 construct: also called Monkey Ang-2FD-hFc
T4 sequence (chain, as listed by the source limits assumed): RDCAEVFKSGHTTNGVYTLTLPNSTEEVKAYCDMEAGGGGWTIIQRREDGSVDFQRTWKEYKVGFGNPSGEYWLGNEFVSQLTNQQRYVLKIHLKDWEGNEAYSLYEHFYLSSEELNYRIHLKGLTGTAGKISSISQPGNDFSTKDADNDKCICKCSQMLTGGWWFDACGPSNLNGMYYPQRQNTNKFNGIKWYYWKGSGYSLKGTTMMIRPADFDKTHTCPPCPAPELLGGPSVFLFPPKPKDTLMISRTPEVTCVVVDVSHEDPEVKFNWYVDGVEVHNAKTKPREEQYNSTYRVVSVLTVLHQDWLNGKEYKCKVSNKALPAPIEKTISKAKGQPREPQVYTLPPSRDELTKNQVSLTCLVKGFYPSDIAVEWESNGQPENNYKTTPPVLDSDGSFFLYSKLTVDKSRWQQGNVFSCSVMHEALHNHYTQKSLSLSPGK
Kind of experiment: SPR, captured Ab, RT. On the procedure: (§1) Antibody was captured on a goat anti-mouse IgG polyclonal antibody surface, a goat anti-human κ polyclonal antibody (Southern Biotech, Birmingham, Ala.) surface or a goat anti-human IgG polyclonal antibody (Jackson Immuno Research Lab, West Grove, Pa.) surface created through direct amine coupling to a BIACORE™ CM5 sensor chip to form a captured antibody surface. […] Antigen-antibody binding and dissociation were monitored in real time at room temperature. Kinetic analysis was performed to calculate KD and half-life of antigen/antibody complex dissociation.
Consider B1, for which binding was characterised by a dissociation constant (Kd) of 0.164 nM and the T1/2 came out at 53.3 min.
The like results for B8 were, in that order, 0.283 nM and 22.3 min.
As for B2, the Kd was 2 nM and the T1/2 amounted to 77 min.
Consider B3, for which the Kd was 3.4 nM and the T1/2 was 87 min.
Turning to B4, binding was characterised by a dissociation constant (Kd) of 0.239 nM and the T1/2 is 173 min.
The like results for B5 were, in that order, 0.439 nM and 118 min.
Turning to B6, the affinity, expressed as Kd, was 0.818 nM and the T1/2 was determined as 33.5 min.
B7 registered a dissociation constant (Kd) of 0.683 nM and a T1/2 of 93 min.
Molecule B9 returned a Kd of 0.29 nM and a T1/2 of 41 min.

Another experiment concerns the target T5, Dimeric Mouse Ang-2FD conjugated to human IgG1 (mouse (Mus musculus); human).
T5 construct: also called Mouse Ang-2FD-hFc
Kind of experiment: SPR, captured Ab, RT. On the procedure:
as §1
In the case of B1, binding was characterised by a dissociation constant (Kd) of 0.357 nM and the T1/2 stood at 47 min.
The like results for B8 were, in that order, 0.328 nM and 34.4 min.
In turn, B2 registered a Kd of 5.76 nM and a T1/2 of 20 min.
Molecule B3 displayed a Kd of 0.0971 nM and a T1/2 of 90 min.
With B4, binding was characterised by a dissociation constant (Kd) of 0.185 nM and the T1/2 turned out to be 84 min.
In turn, B5 showed a Kd of 0.529 nM and a T1/2 of 51 min.
The like results for B6 were, in that order, 0.484 nM and 61.9 min.
As to B7, the affinity, expressed as Kd, was 0.276 nM and the T1/2 was determined as 58 min.
The molecule B9 displayed an equilibrium dissociation constant (Kd) of 0.22 nM and a T1/2 of 43.8 min.

In a further experiment the target is T6, Dimeric Human Ang-2FD conjugated to human IgG1 (human).
T6 construct: also called Human Ang-2FD-hFc; hAng-2FD-hFc
Kind of experiment: SPR, captured Ab, RT. On the procedure: as §1
Turning to B1, binding was put at a Kd of 0.201 nM and the T1/2 came to 50.4 min.
With B8, the affinity, expressed as Kd, was 0.262 nM and the T1/2 amounted to 26.6 min.
The corresponding values for B2 are 0.162 nM and 81 min.
The molecule B3 showed a Kd of 0.234 nM and a T1/2 of 62 min.
In turn, B4 yielded an equilibrium dissociation constant (Kd) of 0.115 nM and a T1/2 of 107 min.
As for B5, the affinity, expressed as Kd, was 0.386 nM and the T1/2 is 57 min.
The like results for B6 were, in that order, 0.331 nM and 86.1 min.
The molecule B7 returned a Kd of 0.186 nM and a T1/2 of 65 min.
With B9, the dissociation constant Kd is 0.22 nM and the T1/2 turned out to be 38.5 min.
